Patent US20090175892A1 (INSTITUT PASTEUR, published 2009)

Experiments:
[1] = target: T1, HLA-B*0702 molecule on HLA-B*0702 transfected TAP deficient T2 cells (T2-B7) (human); assay: MHC stabilization assay on T2-B7 cells, flow cytometry with ME.1; ratio of concentration giving 20% of maximal binding against reference peptide R10TV
T1 construct: MHC class I molecule without a defined peptide, on the surface of T2-B7 cells; its surface level was read with the anti-HLA-B7 mAb ME.1 by flow cytometry; also called HLA-B7
Description: The relative avidity of hTERT derived peptides for HLA-*B0702 was measured by using a MHC stabilization assay on HLAB0702 transfected T2 (T2-B7) cells in comparison with a reference peptide (R10TV) as described (Rohrlich et al. Int Immunol 2003; 15:765-72). Briefly, T2-B7 were incubated overnight at 2×10⁵ cells/well in 96-well plates in serum free medium AIM-V (Invitrogen Corp., Gibco), supplemented with 100 ng/ml of human β2-microglobulin, in the absence (negative control) or in the presence of either reference peptide […] or hTERT peptides at various final concentrations (100, 10, 1 and 0.1 μM). T2-B7 cells were labelled with a saturating concentration of ME.1 an anti-HLA-B7 mAb, then washed twice and finally stained with FITC-conjugated F(ab′)2 goat anti-mouse Ig before flow cytometry.

[2] = target: T1, HLA-B*0702 molecule on HLA-B*0702 …; assay: MHC stabilization assay on T2-B7 cells, ME-1 staining; ratio of concentration inducing 20% of HLA-B*0702 expression against reference peptide CMV265-274
Text: The protocol used has been described previously (Rohrlich et al., 2003).

| Binder | relative avidity [1] | RA (relative affinity) [2] |
| --- | --- | --- |
| APRCRAVRSL (Synthetic peptide, minimum purity 80%) [hTERT peptide p4 (APRCRAVRSL, residues 4-13)] | 0.3 ratio |  |
| MPRAPRCRA (Synthetic peptide, minimum purity 80%) [hTERT peptide p1 (MPRAPRCRA, residues 1-9)] | 0.4 ratio |  |
| APRRLVQLL (Synthetic peptide (Epytop); also called optimized p444*) [hTERT peptide analogue p444* (APRRLVQLL)] |  | 1.4 ratio |

Now from value to binder:

| relative avidity [1] | RA (relative affinity) [2] | Binder |
| --- | --- | --- |
| 1.5 ratio |  | RPSLTGARRL (Synthetic peptide, minimum purity 80%) [hTERT peptide p351 (RPSLTGARRL, residues 351-360)] |
| 0.4 ratio |  | APSFRQVSCL (Synthetic peptide, minimum purity 80%) [hTERT peptide p68 (APSFRQVSCL, residues 68-77)] |
